Measurements from US20210380703A1 (RIGEL PHARMACEUTICALS, published 2021).
Changes are numbered by the printed parent chain. One block for each binder: values may come before it.

How the values were obtained:
[1] = biological target: T1, biotinylated goat anti-human kappa light chain; assay: ELISA, positive control
T1 construct: positive control of the ELISA
Method in brief: (§1)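 ELISA measured binding of ACVR2A-specific monoclonal antibodies to human and mouse ACVR2A. Biotinylated goat anti-human kappa light chain served as positive control and human Fc as negative control.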

human ACVR2A = biological target: T2, human ACVR2A (human, UniProt P27037 20-135, limits assumed); assay: ELISA
T2 construct: coated antigen of the initial ELISA; also called activin receptor, type II A
T2 sequence (P27037 20-135 limits assumed): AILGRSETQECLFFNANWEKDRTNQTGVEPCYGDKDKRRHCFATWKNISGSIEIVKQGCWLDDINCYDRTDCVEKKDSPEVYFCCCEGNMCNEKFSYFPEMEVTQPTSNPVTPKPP
Method in brief: as §1

mouse ACVR2A = biological target: T3, mouse ACVR2A (mouse, UniProt P27038 20-135, limits assumed); assay: ELISA
T3 construct: coated antigen of the initial ELISA
T3 sequence (P27038 20-135 limits assumed): as the sequence (P27037 20-135 limits assumed) above, with K20R, V73I counted along it
Method in brief: as §1
Note: test concentration or dose not given here.

optical density [1]: 3.53 OD
optical density (human ACVR2A): 2.34 OD
optical density (mouse ACVR2A): 2.31 OD
B1: 371_F10 (antibody, V domains shown)
VH: EVQLLESGGGLVQPGGSLRLSCAASGFTFDSYGMNWVRQAPGKGLEWVSGINYNSGYTSYADSVKGRFTISRDNSKNTLYLQMNSLRAEDTAVYYCARGANWHDTALDYWGQGTLVTVSS
VL: DIQMTQSPSSLSASVGDRVTITCRASQSISSYLNWYQQKPGKAPKLVIYAVTSRASGVPSRFSGSGSGTDFTLTISSLQPEDFATYYCQQSYESPLTFGGGTKVEIK
notes: Group III

optical density [1]: 3.67 OD
optical density (human ACVR2A): 2.84 OD
optical density (mouse ACVR2A): 2.75 OD
B2: 371_G11 (antibody, V domains shown)
VH: B1 VH with D30S, G50N
VL: B1 VL with S30L, L33V, V47L, V51A, R54L, E93D
notes: Group III

optical density [1]: 3.58 OD
optical density (human ACVR2A): 3.26 OD
optical density (mouse ACVR2A): 3.51 OD
B3: 371_H04 (antibody, V domains shown)
VH: B1 VH with D30S, G50N, S55G, S59G
VL: B1 VL with S30L, S31T, V47L, V51A, E93N
notes: Group III

optical density [1]: 3.54 OD
optical density (human ACVR2A): 3.62 OD
optical density (mouse ACVR2A): 3.58 OD
B4: 371_G04 (antibody, V domains shown)
VH: B1 VH with G33S, S55G, T58K
VL: B1 VL with S30L, V47L, V51A, R54L, A55H
notes: Group III

optical density [1]: 3.6 OD
optical density (human ACVR2A): 3.04 OD
optical density (mouse ACVR2A): 3.29 OD
B5: 372_D03 (antibody, V domains shown)
VH: B1 VH with D30S, G33S, S49A, T58K
VL: B1 VL with S30L, L33V, A55H, E93D
notes: Group III

optical density [1]: 3.67 OD
optical density (human ACVR2A): 3.12 OD
optical density (mouse ACVR2A): 3.06 OD
B6: 371_G02 (antibody, V domains shown)
VH: B1 VH with S49A, G50S, S55G, A106H
VL: B1 VL with S30L, V47L, V51A, E93D, S94L
notes: Group III

optical density [1]: 3.27 OD
optical density (human ACVR2A): 1.2 OD
optical density (mouse ACVR2A): 1.25 OD
B7: 371_H05 (antibody, V domains shown)
VH: B1 VH with D30S, T58K
VL: B1 VL with S30I, V47L, V51A, R54L, E93S, S94L
notes: Group III

optical density [1]: 3.47 OD
optical density (human ACVR2A): 1.66 OD
optical density (mouse ACVR2A): 2.04 OD
B8: 371_H08 (antibody, V domains shown)
VH: B1 VH with D30S, S49A, G50S, S55G, T58K, S59G, A106H
VL: B1 VL with S30I, L33V, E93D, S94T
notes: Group III

optical density [1]: 3.68 OD
optical density (human ACVR2A): 3.04 OD
optical density (mouse ACVR2A): 3.25 OD
B9: 371_F11 (antibody, V domains shown)
VH: B1 VH with D30S, G33S, S55G
VL: B1 VL with S30I, L33V, V47L, E93D, S94L
notes: Group III

optical density [1]: 3.67 OD
optical density (human ACVR2A): 3.17 OD
optical density (mouse ACVR2A): 3.51 OD
B10: 372_B02 (antibody, V domains shown)
VH: B1 VH with D30S, G33S
VL: B1 VL with S30L, L33V, V47L, R54L, S94T
notes: Group III

optical density [1]: 3.7 OD
optical density (human ACVR2A): 3.03 OD
optical density (mouse ACVR2A): 3.11 OD
B11: 371_H06 (antibody, V domains shown)
VH: B1 VH with S55G
VL: B1 VL with E93D, S94L
notes: Group III

optical density [1]: 3.49 OD
optical density (human ACVR2A): 3.21 OD
optical density (mouse ACVR2A): 3.54 OD
B12: 372_C06 (antibody, V domains shown)
VH: B1 VH with D30S, S31D, G33S, S55G
VL: B1 VL with S30V, L33V, V47L, V51A, E93S
notes: Group III

optical density [1]: 3.58 OD
optical density (human ACVR2A): 2.75 OD
optical density (mouse ACVR2A): 3.07 OD
B13: 371_G09 (antibody, V domains shown)
VH: B1 VH with D30S, G33S, S49A, G50N, S55G, S59G
VL: B1 VL with S30L, V51A, Y92D, E93S, S94T
notes: Group III

optical density [1]: 3.55 OD
optical density (human ACVR2A): 2.19 OD
optical density (mouse ACVR2A): 2.55 OD
B14: 371_H10 (antibody, V domains shown)
VH: B1 VH with D30S, G33S, S49A, T58K, A106H
VL: B1 VL with S31T, V47L, V51A, A55H, S94N
notes: Group III
